Data as given in the Human Domainome abundance scans (Beltran et al. 2025).

B1: Metastasis-associated protein MTA3, residues 265 to 317; numbered along this chain, Q9BTC8 (parent)
chain: RDEMEEWSASEASLFEEALEKYGKDFNDIRQDFLPWKSLTSIIEYYYMWKTTD

Variants of: B1
Test: abundance fitness (aPCA) (normalised: wild type 0, dead -1); higher = more abundant; growth selection in yeast, the domain comes from the species named
Conditions: Homo sapiens

Abundance fitness of substitutions, site by site:
M48: E -0.207 | P -0.817 | V -0.212 | Q 0.133 | D -0.619 | F 0.204 | G -0.257 | W -0.256 | K 0.128 | N -0.144 | C -0.086 | A -0.006 | R 0.323 | S -0.04 | T -0.103 | L -0.176
K50: P -0.472 | T -0.271 | N 0.024 | S -0.2 | Q -0.102 | F -0.62 | I -0.653 | W -0.882 | G -0.877 | M -0.171 | A -0.42 | R -0.288 | E -0.278 | V 0.311 | H -0.127 | L -0.444 | C -0.279 | D -0.593
Y46: M -0.99 | L -0.851 | A -0.824 | P -0.598 | S -0.457 | H -0.176 | E -0.531 | N -0.907 | W -0.62 | K -0.791 | C -0.976 | V -0.98 | G -0.422
E44: D -0.145 | C -0.808 | H -0.438 | N 0.177 | M -0.961 | V -0.758 | Y -0.834 | I -0.779 | T -0.443 | P -0.922 | L -0.694 | A -0.477 | K -0.246 | G -0.691 | R 0.079 | W -1.05 | Q 0.015
Y45: W -0.546 | Q -0.566 | G -0.98 | M -0.872 | P -0.726 | T -0.41 | S -0.561 | R -0.174 | E -0.77 | V -1.01
T40: W -0.898 | V -0.714 | S -0.336 | Q 0.195 | R -0.029 | Y -0.571 | P -0.332
T51: C -0.244 | A 0.185
I42: T -0.605 | F -0.634 | W -0.204 | R -0.69 | A -0.98 | Y -0.572 | P -0.798 | Q -0.875 | H -0.744 | E -0.888 | M -0.833 | S -0.713 | C -0.711 | V -0.475 | D -0.828 | L -0.658
Y47: A 0.387 | N 0.053 | G 0.027 | H 0.196 | C -0.187 | R 0.31 | S 0.325 | W -0.174 | E 0.516 | T 0.398 | K 0.375 | Q 0.329 | L -0.735 | V -0.681
W49: L 0.112 | H 0.122 | E 0.075 | V -0.204 | Y 0.077 | C 0.061 | R 0.514 | I -0.04 | M 0.353 | Q 0.349 | D -0.532 | K 0.497 | P -0.599 | T 0.248 | N 0.404 | A -0.088
I43: C -0.517 | E 0.392 | W -0.559 | S -0.297 | L -0.689 | Q 0.136 | G -0.491 | A -0.148 | K 0.268 | Y -0.304 | P -0.875 | R 0.162 | F -0.474 | N -0.7 | D -1.11 | H -0.075 | M -0.01 | V -0.381 | T -0.193
S41: A -0.139 | N -0.561 | G -0.954 | R -0.868 | F -0.54 | I -1.09 | Q -0.226 | D 0.05 | K -0.781 | Y -0.488 | C -0.681 | P 0.242 | H -0.717 | T -0.804 | V -0.837 | M -0.794 | L -0.577 | W -0.901 | E 0.161
